“Also recorded” adds a separate entry of the source. Where no end group is shown, it is not given here. fluorescein = amino-terminal fluorescein label
Experiments:
[1] = molecular target: Pol1 CIP-box (Saccharomyces cerevisiae) (UniProt P13382); conditions: cited from earlier work
[2] = molecular target: Sld5 CIP-box (Saccharomyces cerevisiae) (UniProt Q03406); conditions: cited from earlier work
Ctf4-I901E (471-927) = experiment: Fluorescence anisotropy, Sld5 peptide binding to Ctf4-I901E; design: species or system budding yeast; conditions: Figure S2B; 40 nM fluorescein-labeled Sld5 peptide, pH 7.2, 25°C
Experimental: (§1) The lowest concentration of peptide at which the binding studies could be performed was determined via peptide calibration curves. Fluorescence anisotropy measurements were recorded in a PHERAstar Plus multi-detection plate reader (BMG Labtech) equipped with fluorescence polarization optic module (λex = 485 nm; λem = 520 nm) at 25°C. Each data point is the mean of 200 flashes/well. The voltage gain was set by adjusting the target mP values of fluorescein-labeled peptides relative to that of fluorescein (35 mP). Serial dilutions of Ctf4CTD were made in 20 mM HEPES (pH 7.2), 140 mM KCl, and 5% (w/v) glycerol in the presence of 40 nM (Sld5 and Tof2) or 50 nM (Dna2) fluorescein-labeled peptide. For Dna2 peptide, each data point is the mean of three independent experiments and curve fitting to the experimental data was performed in pro Fit 6.2 (QuantumSoft) using a Levenberg-Marquardt fitting algorithm in combination with a Gaussian error distribution analysis.

Ctf4-4E (471-927) = experiment: Fluorescence anisotropy, Sld5 peptide binding to Ctf4-4E; design: species or system budding yeast; conditions: Figure S2B; 40 nM fluorescein-labeled Sld5 peptide, pH 7.2, 25°C
Experimental: as §1

Ctf4 471–927 [3] = molecular target: T1, Ctf4 471–927 (budding yeast, UniProt Q01454 471-927); experiment: fluorescence polarisation; fluorescence anisotropy; serial dilutions of Ctf4CTD with 40 nM (Sld5, Tof2) or 50 nM (Dna2) fluorescein-labeled peptide; 20 mM HEPES pH 7.2, 140 mM KCl, 5% glycerol, 25°C; conditions: both partners purified
T1 construct: also called Ctf4CTD; source: purified Ctf4CTD protein
T1 sequence (looked up): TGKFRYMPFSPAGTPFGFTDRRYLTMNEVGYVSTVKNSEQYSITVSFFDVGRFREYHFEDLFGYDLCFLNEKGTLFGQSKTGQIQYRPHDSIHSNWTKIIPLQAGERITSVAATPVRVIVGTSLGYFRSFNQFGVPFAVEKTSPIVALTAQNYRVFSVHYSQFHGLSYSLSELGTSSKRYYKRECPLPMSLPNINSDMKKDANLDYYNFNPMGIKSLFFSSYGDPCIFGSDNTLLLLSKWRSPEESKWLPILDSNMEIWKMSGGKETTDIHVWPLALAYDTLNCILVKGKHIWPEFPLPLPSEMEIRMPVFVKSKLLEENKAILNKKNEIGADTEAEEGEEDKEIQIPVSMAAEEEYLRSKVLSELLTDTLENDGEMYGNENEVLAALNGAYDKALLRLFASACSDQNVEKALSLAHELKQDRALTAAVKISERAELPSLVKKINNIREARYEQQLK

Dpb2 = experiment: Yeast two-hybrid with Dpb2; assay type: binding, budding yeast
Experimental: (§2) Yeast growth, two-hybrid analysis, and immunoprecipitation experiments were performed as described in detail previously ([Maculins et al., 2015], [Maric et al., 2014]). A two-hybrid screen against amino acids 461–927 of Ctf4 was performed by the company Hybrigenics.

CMG helicase = experiment: Co-purification with CMG helicase from yeast cell extracts; assay type: cell-based, budding yeast; conditions: extracts of S phase yeast cells; immunoprecipitation, immunoblotting
Experimental: (D) Cultures of ctf4-4E MCM4-9MYC (YFV13) and MCM4-9MYC control cells (YSS75) were synchronized in G1-phase at 30°C and then released into S phase for 20 min. The Mcm4-9MYC was isolated from cell extracts by immunoprecipitation and the associated proteins monitored by immunoblotting. (E) ctf4-4E is synthetic lethal with mrc1Δ. The cells were processed as in Figure 1A, and the photos in the lower images were taken after 20 hr growth at 30°C (the scale bars represent 50 μm). See also Figure S2. TEXT PRINTED IN THE PICTURE: (C) Ctf4-4E (471-927): 162 kDa
as §2

Tof2 = experiment: Yeast two-hybrid with Tof2; assay type: binding, budding yeast
Experimental: as §2

Dna2 = experiment: Yeast two-hybrid with Dna2; assay type: binding, budding yeast
Experimental: as §2

Pol1 = experiment: Yeast two-hybrid with Pol1; assay type: binding, budding yeast
Experimental: as §2

SEC-MALS = assay type: physicochemical; conditions: residues 471–927, 2 mg/ml, 20 mM HEPES pH 7.2, 160 mM NaCl
Experimental: 100 μl of Ctf4CTD 4E mutant protein (with mutated binding site for type I CIP-boxes) at a concentration of 2 mg/ml was loaded onto a Superdex S200 HR 10/300 gel-filtration column (GE Healthcare) in 20 mM HEPES pH 7.2, 160 mM NaCl at a flow rate of 0.5 ml/min. The column was controlled using an Äkta Purifier System (GE Healthcare) and was linked to a DAWN 8^+ 8-angle light scattering detector (Wyatt Technology) with a fused silica sample cell using a laser wavelength of 664 nm. The change in the refractive index was detected using an Optilab T-rEX refractometer with extended range (Wyatt Technology) using a wavelength of 658 nm. Data collection and analysis was carried out using the ASTRA6 software package (Wyatt Technology). Molecular weight determination across the sample peak was carried out using a Zimm-plot derived global fitting algorithm with a fit degree of 1 and a dn/dc value of 0.1850 ml/g.

Ctf4 471–927 [4] = molecular target: T1, Ctf4 471–927; experiment: pull-down; GST fusion on Glutathione Sepharose beads; 500 μl purified Ctf4CTD at 2 mg/ml, 1 hr at 4°C; 20 mM HEPES pH 7.2, 150 mM NaCl, 5% glycerol, 0.1% Igepal CA-630, 1 mM TCEP, 1% BSA; SDS-PAGE; conditions: both partners purified
Ctf4 471–927 [5] = molecular target: T1, Ctf4 471–927; experiment: native MS; 5-fold or 10-fold molar excess of peptide mixed with 100 μM Ctf4CTD in 500 mM ammonium acetate, at least 30 min; conditions: both partners purified

For Ctf4 (from UniProt Q01454), the Kd [1] is given as 25 µM and the Kd [2] is given as 5 µM.

In the case of “Sld5 peptide (1-19): isolated peptide containing the Sld5 CIP-box, residues 1-19 (MDINIDDILAELDKETTAV; also: fluorescein-labeled, end not given here; UniProt Q03406 1-19, looked up, fragment)”, the “binding to Ctf4-I901E (in words)” value (Ctf4-I901E (471-927)) is reported as “blocked binding; also recorded: neither Ctf4-4E nor Ctf4-I901E could bind” and the “binding to Ctf4-4E (in words)” value (Ctf4-4E (471-927)) is reported as “blocked binding; also recorded: neither Ctf4-4E nor Ctf4-I901E could bind”.

B1: Dna2 peptide 207–223 (peptide)
peptide: fluorescein-SLRNIDDILDDIEGDLT
notes: Dna2, yeast, residues 207-223; also called Dna2 CIP-box peptide; isolated peptide containing the Dna2 CIP-box; source: synthetic peptide (Cambridge Peptides)
B1 showed a Kd (Ctf4 471–927 [3]) of 230 µM.

B2: Ctf4-3E: Ctf4 with M731, I740, and L756 mutated to glutamate; disrupts binding site for type II CIP-box proteins (protein)
chain: MVSVIDKLVFDFGGKTLVSLAPDNNTLCVANKNGLTKILKTNNPEEEPETLDSSKLVSSIKCYSNSHFLMTTMQGDALRYNIDSSQEELLARFALPLRDCCVIHSGKMAVFGGDDLELILLELDDETHKKHAIKIDEQVSQISYNSQMNILAVSMINGKVQIFSLTSTIPNKVHELNDYIVANSYDDTHRDKILSNMMDDIDKDNDNDLSETADPDENNVADPEFCAANRICTRVAWHPKGLHFALPCADDTVKIFSIKGYSLQKTLSTNLSSTKAHFIDLQFDPLRGTYIAAVDLNNKLTVWNWETSEIHYTREFKRKITNIAWKIQADSKTLDLVLGTWSGSIAIVQNLAESVVSNIPDQSVAESSTKHGLFVDSESDLENLEGNDDINKSDKLFSDITQEANAEDVFTQTHDGPSGLSEKRKYNFEDEEDFIDDDDGAGYISGKKPHNEHSYSRVHKTHSFPISLANTGKFRYMPFSPAGTPFGFTDRRYLTMNEVGYVSTVKNSEQYSITVSFFDVGRFREYHFEDLFGYDLCFLNEKGTLFGQSKTGQIQYRPHDSIHSNWTKIIPLQAGERITSVAATPVRVIVGTSLGYFRSFNQFGVPFAVEKTSPIVALTAQNYRVFSVHYSQFHGLSYSLSELGTSSKRYYKRECPLPMSLPNINSDMKKDANLDYYNFNPMGIKSLFFSSYGDPCIFGSDNTLLLLSKWRSPEESKWLPILDSNMEIWKESGGKETTDEHVWPLALAYDTLNCIEVKGKHIWPEFPLPLPSEMEIRMPVFVKSKLLEENKAILNKKNEIGADTEAEEGEEDKEIQIPVSMAAEEEYLRSKVLSELLTDTLENDGEMYGNENEVLAALNGAYDKALLRLFASACSDQNVEKALSLAHELKQDRALTAAVKISERAELPSLVKKINNIREARYEQQLK
With B2 the “interaction with Dpb2 (in words)” value (Dpb2) was “unable to interact”, the “association with CMG helicase (in words)” value (CMG helicase) was “did not prevent association of Ctf4 with the CMG helicase” and the “interaction with Tof2 (in words)” value (Tof2) was “abolished interaction”. The “interaction with Dna2 (in words)” value (Dna2) was “without affecting interaction” and the “interaction with Pol1 (in words)” value (Pol1) was “without affecting interaction”.

B3: Ctf4-4E: Ctf4 L867E-A871E-A897E-I901E, mutated binding site for type I CIP-boxes (protein, UniProt Q01454 2-927, looked up, variant L867E A871E A897E I901E)
DNA polymerase alpha-binding …: VSVIDKLVFDFGGKTLVSLAPDNNTLCVANKNGLTKILKTNNPEEEPETLDSSKLVSSIKCYSNSHFLMTTMQGDALRYNIDSSQEELLARFALPLRDCCVIHSGKMAVFGGDDLELILLELDDETHKKHAIKIDEQVSQISYNSQMNILAVSMINGKVQIFSLTSTIPNKVHELNDYIVANSYDDTHRDKILSNMMDDIDKDNDNDLSETADPDENNVADPEFCAANRICTRVAWHPKGLHFALPCADDTVKIFSIKGYSLQKTLSTNLSSTKAHFIDLQFDPLRGTYIAAVDLNNKLTVWNWETSEIHYTREFKRKITNIAWKIQADSKTLDLVLGTWSGSIAIVQNLAESVVSNIPDQSVAESSTKHGLFVDSESDLENLEGNDDINKSDKLFSDITQEANAEDVFTQTHDGPSGLSEKRKYNFEDEEDFIDDDDGAGYISGKKPHNEHSYSRVHKTHSFPISLANTGKFRYMPFSPAGTPFGFTDRRYLTMNEVGYVSTVKNSEQYSITVSFFDVGRFREYHFEDLFGYDLCFLNEKGTLFGQSKTGQIQYRPHDSIHSNWTKIIPLQAGERITSVAATPVRVIVGTSLGYFRSFNQFGVPFAVEKTSPIVALTAQNYRVFSVHYSQFHGLSYSLSELGTSSKRYYKRECPLPMSLPNINSDMKKDANLDYYNFNPMGIKSLFFSSYGDPCIFGSDNTLLLLSKWRSPEESKWLPILDSNMEIWKMSGGKETTDIHVWPLALAYDTLNCILVKGKHIWPEFPLPLPSEMEIRMPVFVKSKLLEENKAILNKKNEIGADTEAEEGEEDKEIQIPVSMAAEEEYLRSKVLSELLTDTLENDGEMYGNENEVLAALNGAYDKALERLFESACSDQNVEKALSLAHELKQDRALTEAVKESERAELPSLVKKINNIREARYEQQLK
With B3 the “interaction with Dpb2 (in words)” value (Dpb2) was “still able to interact”, the “association with CMG helicase (in words)” value (CMG helicase) was “unable to interact with the CMG helicase” and the “oligomeric state (in words)” value (SEC-MALS; SEC-MALS) was “able to form a trimer in vitro; also recorded: trimeric”. The “molecular mass by SEC-MALS” value (SEC-MALS; printed in Figure 2C) was 162 kDa, the “interaction with Tof2 (in words)” value (Tof2) was “still able to interact” and the “interaction with Dna2 (in words)” value (Dna2) was “unable to interact”. For the same molecule, the “interaction with Pol1 (in words)” value (Pol1) was “does not interact with the amino terminus of Pol1; also recorded: unable to interact”.

B4: GST-Dna2 CIP-box 207–223 (domain or fragment, yeast)
chain: SLRNIDDILDDIEGDLT
notes: Dna2, budding yeast, residues 207-223 (CIP-box)
B4: binds (Ctf4 471–927 [4]).

B5: Tof2 peptide 497–517 (peptide)
peptide: fluorescein-SHAKDVKIQETIRKLNRFKPT
notes: Tof2, yeast, amino acids 497-517; also called Tof2 CIP-box peptide; peptide containing the Tof2 CIP-box; source: synthetic peptide (Cambridge Peptides)
B5: binds (Ctf4 471–927 [5]).
